Experimental data as given in PMC5556061 (Scientific Reports, 2017).

What was measured:
CAS SH3 Y12E = experiment: Phage ELISA with CAS SH3 variants; format: binding, mouse; settings: immobilized 5 µg of CAS SH3 variant per well, three independent experiments
Experimental: The relative binding affinities of individual phage clones to GST-CAS SH3 were assessed by ELISA according to the manufacturer’s protocol (Ph.D.™ −12 Phage Display Peptide Library Kit, New England Biolabs). Briefly, a dilution series of phage stocks was prepared in TBS with 0.5% Tween 20 (TBST, 10^15−2 × 10^6 pfu/ml), and phages were scored for their ability to bind immobilized GST-CAS SH3 domain (100 µl of 50 µg/ml per well) in 96-well plate. Bound phages were detected with anti-M13 antibody conjugated to HRP and quantified in a colorimetric assay (ABTS at 415 nm, Invitrogen) using Varioskan Flash (Thermo Scientific). Relative binding affinities (the affinity of the phage clone with the highest affinity was arbitrarily set to 1) were evaluated based on the number of phages required to bind the immobilized GST-fused CAS SH3 domain at 50% saturation. Curves were fitted with the standard sigmoidal function in Sigmaplot. The clones with highest affinities were selected for further analyses (e.g., binding to immobilized 5 µg of CAS SH3 variants per well).

GST-fused CAS SH3 domain = experiment: Competitive displacement phage ELISA (EC50); format: binding, mouse
Experimental: The EC50 for phage clone 1 ([…], highest affinity) was determined using competitive displacement of the phage bound (5.5·10^10 pfu) to immobilized GST-fused CAS SH3 domain (100 µl of 20 µg/ml per well to yield the best specificity/sensitivity ratio) by serial additions of free GST-fused CAS SH3 domain in TBST (1 µg/ml–800 µg/ml) as previously described. The amount of bound phages was assessed with anti-M13 antibody conjugated to HRP and quantified in a colorimetric assay. Displacement curves were fitted to standard sigmoidal function and EC50 was calculated in Sigmaplot version 11 software using a four-parameter logistic equation. Statistical significance (*p < 0.05, **p < 0.01, ***p < 0.001) was determined on log-transformed data by one-way ANOVA followed by Tukey’s post-hoc test.

Src kinase = experiment: Co-immunoprecipitation of FAK and Vinculin with CAS after Src inhibition; format: cell-based, mouse; settings: MEFs SrcF treated with 5 µM Saracatinib for 3 h, Vinculin immunoblot
Experimental: Immunoprecipitations from lysates of MEFs or MEFs transformed with SrcF were performed similarly as described above. To immunoprecipitate CAS proteins, protein-A sepharose (GE-Healthcare) and anti-CAS antibody (BD Transduction Laboratories) were used. […] After transferring proteins onto nitrocellulose membrane and blocking, the membranes were incubated with anti CAS, Src, FAK, Vinculin, CAS Tyr12, CAS pTyr165, Src pTyr418 or actin antibody.

[1] = biological target: T1, CAS SH3 (as used for ITC) (mouse, UniProt Q61140 3-65); experiment: ITC; 660 µM peptide injected into 60 µM CAS SH3; 25 °C; PBS pH 7.5, 0.05% 2-mercaptoethanol; settings: both partners purified
T1 construct: Crk-associated substrate (CAS), mouse, SH3 domain; probably the same protein as m2; source: E. coli BL21 (DE3), purified
T1 sequence (looked up): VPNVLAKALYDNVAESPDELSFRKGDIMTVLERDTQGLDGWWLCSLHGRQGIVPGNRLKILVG

[2] = biological target: T2, CAS SH3 domain (GST tag removed, for NMR) (mouse, UniProt Q61140 3-65); experiment: NMR solution structure; chimeras: peptide fused through a Gly/Ser-rich linker to the C-terminus of the CAS SH3 domain; 450 µM; 25 °C; 25 mM sodium phosphate pH 7.5, 100 mM NaCl, 1 mM TCEP; settings: both partners purified
T2 construct: Crk-associated substrate (CAS), mouse, SH3 domain; Two additional residues remained at the N-terminus after thrombin cleavage; In the two chimeras this domain carried, on the same chain, the spacer SGGSGSG and the peptide m17 or m18 at its C-terminus; also called free CAS SH3 domain; source: E. coli BL21 (DE3), 15N/13C-labelled, purified (glutathione agarose, thrombin cleavage, size exclusion); …
T2 sequence (looked up): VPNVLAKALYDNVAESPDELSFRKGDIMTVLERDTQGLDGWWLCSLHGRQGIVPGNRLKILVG

[3] = biological target: T3, GST-fused CAS SH3 domain Y12F (mouse, UniProt Q61140 3-65, Y12F); experiment: ELISA; phage ELISA: GST-CAS SH3 domain or its variants immobilised in 96-well plate (100 µl of 50 µg/ml; 5 µg per well), dilution series of phage stocks in TBS with 0.5% Tween 20, anti-M13-HRP; relative affinities from phage number at 50% saturation; settings: one partner purified
T3 construct: Crk-associated substrate (CAS), mouse, SH3 domain with Y12F; also called CAS SH3 Y12F mutant; source: E. coli BL21 (DE3), pGEX-2TK, purified (glutathione agarose); not shown: GST, N-terminal, kept
T3 sequence (looked up): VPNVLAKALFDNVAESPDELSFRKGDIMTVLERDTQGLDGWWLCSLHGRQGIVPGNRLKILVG

[4] = biological target: T4, phage-displayed peptide clone 1 (FHAPPSKPPLPK); experiment: ELISA; competitive displacement of phage clone 1 (5.5·10^10 pfu) bound to immobilised GST-CAS SH3 (100 µl of 20 µg/ml per well) by free GST-CAS SH3 in TBST (1-800 µg/ml); anti-M13-HRP; settings: one partner purified
T4 construct: 12-residue peptide selected from a degenerate library; also called phage clone 1; source: M13 phage stock (Ph.D.-12 Phage Display Peptide Library, New England Biolabs), selected by panning
T4 peptide: FHAPPSKPPLPK

## AHTPPPKPTRPP [clone 16]
CAS SH3 Y12E
  effect of Y12E mutation on ligand binding: complete disruption of ligand binding

## FHAPPSKPPLPK [clone 1]
GST-fused CAS SH3 domain; EC50 of clone 1 compared with previously reported value
  fold higher affinity than reported for CAS SH3 with FAK-derived peptide: ~6 fold
GST-fused CAS SH3 domain; displacement of bound phage (5.5·10^10 pfu) from immobilized GST-CAS SH3 (100 µl of 20 µg/ml per well) by free GST-fused CAS SH3 (1-800 µg/ml) in TBST, anti-M13-HRP, colorimetric, seven independent experiments, read-out: EC50 for clone 1 binding
  EC50: 0.363 µM

## TMTPPPKPPRLI [clone 10]
CAS SH3 Y12E
  effect of Y12E mutation on ligand binding: complete disruption of ligand binding

## CN1CCN(CCOc2cc(OC3CCOCC3)c3c(Nc4c(Cl)ccc5c4OCO5)ncnc3c2)CC1 [Saracatinib]
Src kinase
  binding of CAS to Vinculin: restored the binding of CAS to Vinculin to a similar level as in MEFs

B1: synthetic octapeptide APPKPPLP (binding site of CAS on Vinculin) (peptide)
peptide: APPKPPLP
notes: also called Vinculin core peptide (859-866); source: synthetic peptide
[1]
  Kd: 15.7 µM
  stoichiometry N: 1

## PPSKPPRP (source: synthetic peptide) [synthetic octapeptide PPSKPPRP]
[1]
  Kd: 15.3 µM
  stoichiometry N: 1

## PPSKPPLP (source: synthetic peptide) [synthetic octapeptide PPSKPPLP]
[1]
  Kd: 46.6 µM
  stoichiometry N: 1

B2: Vinculin-derived peptide, residues 854-870 (peptide part of the CAS-Vinculin chimera) (peptide, UniProt Q64727 854-870, looked up)
peptide: LTDELAPPKPPLPEGEV
notes: Vinculin, mouse, residues 854-870; Stood on one chain with the CAS SH3 domain: SH3 domain, spacer SGGSGSG, peptide; also called Vinculin peptide; Vinculin extended peptide; source: E. coli BL21 (DE3), as the C-terminal part of the CAS SH3 chimera, purified
[2]
  binding result: binds

B3: phage-displayed peptide clone 16 (AHTPPPKPTRPP) (peptide)
peptide: AHTPPPKPTRPP
notes: 12-residue peptide selected from a degenerate library; also called phage clone 16; source: M13 phage stock (Ph.D.-12 Phage Display Peptide Library, New England Biolabs), selected by panning
[3]
  fold decrease in affinity against CAS WT: 37 fold

B4: phage-displayed peptide clone 10 (TMTPPPKPPRLI) (peptide)
peptide: TMTPPPKPPRLI
notes: 12-residue peptide selected from a degenerate library; also called phage clone 10; source: M13 phage stock (Ph.D.-12 Phage Display Peptide Library, New England Biolabs), selected by panning
[3]
  fold decrease in affinity against CAS WT: 2 fold

## PPPKPPRL (source: synthetic peptide) [synthetic octapeptide PPPKPPRL]
[1]
  Kd: 5.29 µM
  stoichiometry N: 1

B5: PTP-PEST-derived peptide, residues 327-343 (peptide part of the CAS-PTP-PEST chimera) (peptide, UniProt P35831 327-343, looked up)
peptide: EKQDSPPPKPPRTRSCL
notes: PTP-PEST, mouse, residues 327-343; Stood on one chain with the CAS SH3 domain: SH3 domain, spacer SGGSGSG, peptide; also called PTP-PEST peptide; PTP-PEST extended peptide; source: E. coli BL21 (DE3), as the C-terminal part of the CAS SH3 chimera, purified
[2]
  binding result: binds

B6: GST-fused CAS SH3 domain (domain or fragment, mouse, UniProt Q61140 3-65, looked up)
chain: VPNVLAKALYDNVAESPDELSFRKGDIMTVLERDTQGLDGWWLCSLHGRQGIVPGNRLKILVG
notes: Crk-associated substrate (CAS), mouse, SH3 domain; also called GST-CAS SH3; GST-SH3; source: E. coli BL21 (DE3), pGEX-2TK, purified (glutathione agarose); not shown: GST, N-terminal, kept
[4]
  EC50: 0.363 µM
